According to patent US20240117334A1, “FACTOR B PROTEASES” (Vertex Pharmaceuticals Incorporated, priority 2021, published 2024):

Biological target: Human Factor B (human) (UniProt P00751)
Assay: cell-based or functional assay

Human Factor B (human), sequence (P00751 26-764 limits assumed): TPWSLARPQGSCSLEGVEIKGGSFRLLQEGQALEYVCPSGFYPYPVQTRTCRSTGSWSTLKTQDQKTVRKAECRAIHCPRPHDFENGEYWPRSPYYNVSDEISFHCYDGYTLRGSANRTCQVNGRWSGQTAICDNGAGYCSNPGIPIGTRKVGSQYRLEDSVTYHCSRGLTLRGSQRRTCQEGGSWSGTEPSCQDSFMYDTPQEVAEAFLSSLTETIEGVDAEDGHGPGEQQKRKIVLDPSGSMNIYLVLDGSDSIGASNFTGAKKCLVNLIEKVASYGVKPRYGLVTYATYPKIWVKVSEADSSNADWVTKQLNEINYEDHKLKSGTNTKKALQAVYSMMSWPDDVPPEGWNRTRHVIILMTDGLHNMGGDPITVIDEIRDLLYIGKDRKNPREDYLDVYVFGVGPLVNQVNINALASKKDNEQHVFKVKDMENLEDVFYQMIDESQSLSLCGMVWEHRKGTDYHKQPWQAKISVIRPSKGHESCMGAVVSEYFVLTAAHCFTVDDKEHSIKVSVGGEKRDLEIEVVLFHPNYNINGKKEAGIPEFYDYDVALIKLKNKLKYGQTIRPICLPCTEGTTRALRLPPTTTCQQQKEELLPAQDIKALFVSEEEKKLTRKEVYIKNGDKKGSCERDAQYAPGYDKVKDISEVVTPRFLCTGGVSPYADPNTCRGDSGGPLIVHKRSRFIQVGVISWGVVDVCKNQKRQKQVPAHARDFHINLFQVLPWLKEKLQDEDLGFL

| fB Cleavage EC50 [nM] | Binder |
| --- | --- |
| 218 | chymase C22S/P38Q/K40M/F41T/V138I/D175R/A190S/V213A/S218I/A226R (enzyme) IIGGTESKPHSRPYMAYLEIVTSNGQSMTCGGFLIRRNFVLTAAHCAGRSITVTLGAHNITEEEDTWQKLEVIKQFRHPKYNTSTLHHDIMLLKLKEKASLTLAVGTLPFPSQFNFVPPGRMCRIAGWGRTGVLKPGSDTLQEVKLRLMDPQACSHFRRFDHNLQLCVGNPRKTKSSFKGDSGGPLLCAGVAQGIASYGRIDAKPPRVFTRISHYRPWINQILQAN |
| 1650 | chymase C22S/P38Q/K40M/F41R/L99Y/V138I/F173L/D175Q/A190S/V213A/S218T/A226R (enzyme) IIGGTESKPHSRPYMAYLEIVTSNGQSMRCGGFLIRRNFVLTAAHCAGRSITVTLGAHNITEEEDTWQKLEVIKQFRHPKYNTSTYHHDIMLLKLKEKASLTLAVGTLPFPSQFNFVPPGRMCRIAGWGRTGVLKPGSDTLQEVKLRLMDPQACSHLRQFDHNLQLCVGNPRKTKSSFKGDSGGPLLCAGVAQGIASYGRTDAKPPRVFTRISHYRPWINQILQAN |
| 283 | chymase C22S/P38Q/K40A/F41R/V138I/F173L/D175R/A190S/V213A/S218L/A226R (enzyme) IIGGTESKPHSRPYMAYLEIVTSNGQSARCGGFLIRRNFVLTAAHCAGRSITVTLGAHNITEEEDTWQKLEVIKQFRHPKYNTSTLHHDIMLLKLKEKASLTLAVGTLPFPSQFNFVPPGRMCRIAGWGRTGVLKPGSDTLQEVKLRLMDPQACSHLRRFDHNLQLCVGNPRKTKSSFKGDSGGPLLCAGVAQGIASYGRLDAKPPRVFTRISHYRPWINQILQAN |
| 350 | chymase C22S/P38Q/K40M/F41R/V138I/F173L/D175K/A190S/V213A/S218V/A226R (enzyme) IIGGTESKPHSRPYMAYLEIVTSNGQSMRCGGFLIRRNFVLTAAHCAGRSITVTLGAHNITEEEDTWQKLEVIKQFRHPKYNTSTLHHDIMLLKLKEKASLTLAVGTLPFPSQFNFVPPGRMCRIAGWGRTGVLKPGSDTLQEVKLRLMDPQACSHLRKFDHNLQLCVGNPRKTKSSFKGDSGGPLLCAGVAQGIASYGRVDAKPPRVFTRISHYRPWINQILQAN |
| 113 | chymase C22S/P38Q/K40L/F41R/V138I/F173L/D175R/A190S/V213A/S218V/A226R (enzyme) IIGGTESKPHSRPYMAYLEIVTSNGQSLRCGGFLIRRNFVLTAAHCAGRSITVTLGAHNITEEEDTWQKLEVIKQFRHPKYNTSTLHHDIMLLKLKEKASLTLAVGTLPFPSQFNFVPPGRMCRIAGWGRTGVLKPGSDTLQEVKLRLMDPQACSHLRRFDHNLQLCVGNPRKTKSSFKGDSGGPLLCAGVAQGIASYGRVDAKPPRVFTRISHYRPWINQILQAN |
| 882 | chymase C22S/P38Q/K40A/F41R/L99H/V138I/F173M/D175T/A190S/V213A/S218I/A226R (enzyme) IIGGTESKPHSRPYMAYLEIVTSNGQSARCGGFLIRRNFVLTAAHCAGRSITVTLGAHNITEEEDTWQKLEVIKQFRHPKYNTSTHHHDIMLLKLKEKASLTLAVGTLPFPSQFNFVPPGRMCRIAGWGRTGVLKPGSDTLQEVKLRLMDPQACSHMRTFDHNLQLCVGNPRKTKSSFKGDSGGPLLCAGVAQGIASYGRIDAKPPRVFTRISHYRPWINQILQAN |
| 2190 | chymase C22S/P38Q/K40A/F41Q/V138I/F173S/D175W/A190S/V213A/S218V/A226R (enzyme) IIGGTESKPHSRPYMAYLEIVTSNGQSAQCGGFLIRRNFVLTAAHCAGRSITVTLGAHNITEEEDTWQKLEVIKQFRHPKYNTSTLHHDIMLLKLKEKASLTLAVGTLPFPSQFNFVPPGRMCRIAGWGRTGVLKPGSDTLQEVKLRLMDPQACSHSRWFDHNLQLCVGNPRKTKSSFKGDSGGPLLCAGVAQGIASYGRVDAKPPRVFTRISHYRPWINQILQAN |
| 414 | chymase C22S/P38Q/K40M/F41R/L99W/V138I/F173M/D175H/A190S/V213A/S218T/A226R (enzyme) IIGGTESKPHSRPYMAYLEIVTSNGQSMRCGGFLIRRNFVLTAAHCAGRSITVTLGAHNITEEEDTWQKLEVIKQFRHPKYNTSTWHHDIMLLKLKEKASLTLAVGTLPFPSQFNFVPPGRMCRIAGWGRTGVLKPGSDTLQEVKLRLMDPQACSHMRHFDHNLQLCVGNPRKTKSSFKGDSGGPLLCAGVAQGIASYGRTDAKPPRVFTRISHYRPWINQILQAN |
| 1230 | chymase C22S/P38Q/K40M/F41R/L99Y/V138I/F173L/D175S/A190S/V213A/S218T/A226R (enzyme) IIGGTESKPHSRPYMAYLEIVTSNGQSMRCGGFLIRRNFVLTAAHCAGRSITVTLGAHNITEEEDTWQKLEVIKQFRHPKYNTSTYHHDIMLLKLKEKASLTLAVGTLPFPSQFNFVPPGRMCRIAGWGRTGVLKPGSDTLQEVKLRLMDPQACSHLRSFDHNLQLCVGNPRKTKSSFKGDSGGPLLCAGVAQGIASYGRTDAKPPRVFTRISHYRPWINQILQAN |
| 10600 | chymase C22S/P38Q/K40M/F41R/L99Y/V138I/F173S/D175S/A190S/V213A/S218T/A226R (enzyme) IIGGTESKPHSRPYMAYLEIVTSNGQSMRCGGFLIRRNFVLTAAHCAGRSITVTLGAHNITEEEDTWQKLEVIKQFRHPKYNTSTYHHDIMLLKLKEKASLTLAVGTLPFPSQFNFVPPGRMCRIAGWGRTGVLKPGSDTLQEVKLRLMDPQACSHSRSFDHNLQLCVGNPRKTKSSFKGDSGGPLLCAGVAQGIASYGRTDAKPPRVFTRISHYRPWINQILQAN |
| 92.9 | chymase C22S/P38Q/K40A/F41R/L99H/V138I/F173Y/D175N/A190S/V213A/S218I/A226R (enzyme) IIGGTESKPHSRPYMAYLEIVTSNGQSARCGGFLIRRNFVLTAAHCAGRSITVTLGAHNITEEEDTWQKLEVIKQFRHPKYNTSTHHHDIMLLKLKEKASLTLAVGTLPFPSQFNFVPPGRMCRIAGWGRTGVLKPGSDTLQEVKLRLMDPQACSHYRNFDHNLQLCVGNPRKTKSSFKGDSGGPLLCAGVAQGIASYGRIDAKPPRVFTRISHYRPWINQILQAN |
| 1060 | chymase C22S/P38Q/K40M/F41H/V138I/D175S/A190S/V213A/A226R (enzyme) IIGGTESKPHSRPYMAYLEIVTSNGQSMHCGGFLIRRNFVLTAAHCAGRSITVTLGAHNITEEEDTWQKLEVIKQFRHPKYNTSTLHHDIMLLKLKEKASLTLAVGTLPFPSQFNFVPPGRMCRIAGWGRTGVLKPGSDTLQEVKLRLMDPQACSHFRSFDHNLQLCVGNPRKTKSSFKGDSGGPLLCAGVAQGIASYGRSDAKPPRVFTRISHYRPWINQILQAN |
| 279 | chymase C22S/P38Q/K40V/F41R/V138I/F173L/D175N/A190S/V213A/S218V/A226R (enzyme) IIGGTESKPHSRPYMAYLEIVTSNGQSVRCGGFLIRRNFVLTAAHCAGRSITVTLGAHNITEEEDTWQKLEVIKQFRHPKYNTSTLHHDIMLLKLKEKASLTLAVGTLPFPSQFNFVPPGRMCRIAGWGRTGVLKPGSDTLQEVKLRLMDPQACSHLRNFDHNLQLCVGNPRKTKSSFKGDSGGPLLCAGVAQGIASYGRVDAKPPRVFTRISHYRPWINQILQAN |
| 639 | chymase C22S/P38Q/K40V/F41R/L99H/V138I/F173M/D175N/A190S/V213A/S218T/A226R (enzyme) IIGGTESKPHSRPYMAYLEIVTSNGQSVRCGGFLIRRNFVLTAAHCAGRSITVTLGAHNITEEEDTWQKLEVIKQFRHPKYNTSTHHHDIMLLKLKEKASLTLAVGTLPFPSQFNFVPPGRMCRIAGWGRTGVLKPGSDTLQEVKLRLMDPQACSHMRNFDHNLQLCVGNPRKTKSSFKGDSGGPLLCAGVAQGIASYGRTDAKPPRVFTRISHYRPWINQILQAN |
| 3130 | chymase C22S/P38Q/K40A/F41T/L99Y/V138I/F173S/D175H/A190S/V213A/S218I/A226R (enzyme) IIGGTESKPHSRPYMAYLEIVTSNGQSATCGGFLIRRNFVLTAAHCAGRSITVTLGAHNITEEEDTWQKLEVIKQFRHPKYNTSTYHHDIMLLKLKEKASLTLAVGTLPFPSQFNFVPPGRMCRIAGWGRTGVLKPGSDTLQEVKLRLMDPQACSHSRHFDHNLQLCVGNPRKTKSSFKGDSGGPLLCAGVAQGIASYGRIDAKPPRVFTRISHYRPWINQILQAN |
| 213 | chymase C22S/P38Q/K40L/F41R/L99M/V138I/F173L/D175R/A190S/V213A/S218V/A226R (enzyme) IIGGTESKPHSRPYMAYLEIVTSNGQSLRCGGFLIRRNFVLTAAHCAGRSITVTLGAHNITEEEDTWQKLEVIKQFRHPKYNTSTMHHDIMLLKLKEKASLTLAVGTLPFPSQFNFVPPGRMCRIAGWGRTGVLKPGSDTLQEVKLRLMDPQACSHLRRFDHNLQLCVGNPRKTKSSFKGDSGGPLLCAGVAQGIASYGRVDAKPPRVFTRISHYRPWINQILQAN |
